The record followed here is patent US9481899B2, “Methods and compositions for producing hydrocarbons” (priority 2008, dated 2016).

Common to all, as to assay type: cell-based
Data set [1] deals with E. coli MG1655. As to the kind of experiment: Heterologous expression of aldehyde-generating enzyme alone in E. coli, GC-MS of fatty aldehydes and fatty alcohols. The procedure:
(§1) The genomic DNA encoding Synechococcus elongatus PCC7942 orf1594 (YP_400611; putative aldehyde-generating enzyme) (SEQ ID NO:65) was amplified and cloned into the NcoI and EcoRI sites of vector OP-80 (pCL1920 derivative) under the control of the Ptrc promoter. The resulting construct (“OP80-PCC7942_1594”) was transformed into E. coli MG1655 and the cells were grown at 37° C. in M9 minimal media with 1% (w/v) glucose as carbon source and supplemented with 100 μg/mL spectinomycin. When the culture reached OD600 of 0.8-1.0, it was induced with 1 mM IPTG and cells were grown for an additional 18-20 h at 37° C. Cells from 0.5 mL of culture were extracted with 0.5 mL of ethyl acetate. After sonication for 60 min, the sample was centrifuged at 15,000 rpm for 5 min. The solvent layer was analyzed by GC-MS as described in Example 1.
The genomic DNA encoding Cyanothece sp. ATCC51142 cce_1430 (YP_001802846; putative aldehyde-generating enzyme) (SEQ ID NO:69) was amplified and cloned into the NcoI and EcoRI sites of vector OP-80 (pCL1920 derivative) under the control of the Ptrc promoter. The resulting construct was transformed into E. coli MG1655 and the cells were grown at 37° C. in M9 minimal media with 1% (w/v) glucose as carbon source and supplemented with 100 μg/mL spectinomycin. The cells were cultured and extracted as in Example 3 and analyzed by GC-MS as described in Example 26.
The genomic DNA encoding P. mariunus CCMP1986 PMM0533 (NP_892651; putative aldehyde-generating enzyme) (SEQ ID NO:71) and Prochlorococcus mariunus CCMP1986 PMM0532 (NP_892650; putative decarbonylase) (SEQ ID NO:19) were amplified and cloned into the NcoI and EcoRI sites of vector OP-80 and the NdeI and XhoI sites of vector OP-183, respectively. The resulting constructs were separately transformed and cotransformed into E. coli MG1655 and the cells were grown at 37° C. in M9 minimal media supplemented with 100 μg/mL spectinomycin and 100 μg/mL carbenicillin. The cells were cultured and extracted as in Example 3 and analyzed by GC-MS as described in Example 26.
The genomic DNA encoding Synechocystis sp. PCC6803 sll0208 (NP_442147; putative fatty aldehyde decarbonylase) (SEQ ID NO:3) was synthesized and cloned into the NdeI and XhoI sites of vector OP-183 (pACYC derivative) under the control of the Ptrc promoter. The genomic DNA encoding Synechocystis sp. PCC6803 sll0209 (NP_442146; acyl-ACP reductase) (SEQ ID NO:67) was synthesized and cloned into the NcoI and EcoRI sites of vector OP-183 (pACYC derivative) under the control of the Ptrc promoter. The resulting constructs were cotransformed with into E. coli MG1655 ΔfadE lacZ::Ptrc ′tesA-fadD. […] The cells were cultured and extracted as in Example 3 and analyzed by GC-MS as described in Example 26.

Data set [2] concerns E. coli MG1655 ΔfadD lacZ::Ptrc-′tesA. As to the kind of experiment: Decarbonylase expression in fatty aldehyde-producing E. coli strain expressing MSMEG_5739. To be noted: coexpressed with M. smegmatis carboxylic acid reductase MSMEG_5739.
For data set [3], the system named is E. coli MG1655. The data set is described as follows: Coexpression of decarbonylase and aldehyde-generating enzyme in E. coli, GC-MS of hydrocarbons. Particulars: for Production of Alkanes and Alkenes: alkane/alkene biosynthetic polypeptide coexpressed in E. coli with the aldehyde biosynthetic polypeptide of the same table row; for fatty aldehyde decarbonylase activity in E. coli: cotransformed with S. elongatus PCC7942_1594 into E. coli MG1655, M9 minimal media, 37° C.
Description: Seven cyanobacteria, whose complete genome sequences are publicly available, were selected for verification and/or detection of alkane biosynthesis: Synechococcus elongatus PCC7942, Synechococcus elongatus PCC6301, Anabaena variabilis ATCC29413, Synechocystis sp. PCC6803, Nostoc punctiforme PCC73102, Gloeobacter violaceus ATCC 29082, and Prochlorococcus marinus CCMP1986. Only the first three cyanobacterial strains from this list had previously been reported to contain alkanes (Han et al., J. Am. Chem. Soc. 91:5156-5159 (1969); Fehler et al., Biochem. 9:418-422 (1970)). The strains were grown photoautotrophically in shake flasks in 100 mL of the appropriate media (listed in Table 8) for 3-7 days at 30° C. at a light intensity of approximately 3,500 lux. Cells were extracted for alkane detection as follows: cells from 1 mL culture volume were centrifuged for 1 min at 13,000 rpm, the cell pellets were resuspended in methanol, vortexed for 1 min and then sonicated for 30 min. After centrifugation for 3 min at 13,000 rpm, the supernatants were transferred to fresh vials and analyzed by GC-MS. The samples were analyzed on either 30 m DP-5 capillary column (0.25 mm internal diameter) or a 30 m high temperature DP-5 capillary column (0.25 mm internal diameter) using the following method.
After a 1 μL splitless injection (inlet temperature held at 300° C.) onto the GC/MS column, the oven was held at 100° C. for 3 mins. The temperature was ramped up to 320° C. at a rate of 20° C./min. The oven was held at 320° C. for an additional 5 min. The flow rate of the carrier gas helium was 1.3 mL/min. The MS quadrapole scanned from 50 to 550 m/z. Retention times and fragmentation patterns of product peaks were compared with authentic references to confirm peak identity.
as §1
The genomic DNA encoding Synechococcus elongatus PCC7942 orf1593 (YP_400610; putative decarbonylase) (SEQ ID NO:1) was amplified and cloned into the NdeI and XhoI sites of vector OP-183 (pACYC derivative) under the control of the Ptrc promoter. The resulting construct was cotransformed with OP80-PCC7942_1594 into E. coli MG1655 and the cells were grown at 37° C. in M9 minimal media supplemented with 100 μg/mL spectinomycin and 100 μg/mL carbenicillin. The cells were cultured and extracted as in Example 3 and analyzed by GC-MS as described in Example 1. […]

Where [4] appears, read: enzyme expressed alone in E. coli MG1655.

B1: PCC7942 orf1594: Synechococcus elongatus PCC7942 orf1594, putative aldehyde-generating enzyme, named Acyl-ACP reductase (protein, listed as Synechococcus elongatus)
chain: MFGLIGHLTSLEQARDVSRRMGYDEYADQGLEFWSSAPPQIVDEITVTSATGKVIHGRYIESCFLPEMLAARRFKTATRKVLNAMSHAQKHGIDISALGGFTSIIFENFDLASLRQVRDTTLEFERFTTGNTHTAYVICRQVEAAAKTLGIDITQATVAVVGATGDIGSAVCRWLDLKLGVGDLILTARNQERLDNLQAELGRGKILPLEAALPEADFIVWVASMPQGVVIDPATLKQPCVLIDGGYPKNLGSKVQGEGIYVLNGGVVEHCFDIDWQIMSAAEMARPERQMFACFAEAMLLEFEGWHTNFSWGRNQITIEKMEAIGEASVRHGFQPLALAI
For B1, the “production of fatty aldehydes and fatty alcohols” value in the data set on E. coli MG1655 [1] (setting [4]) was “generates aldehydes in-vivo”.

B2: sll0209: Synechocystis sp. PCC6803 sll0209, acyl-ACP reductase (protein, listed as Synechocystis sp.)
chain: MFGLIGHLTSLEHAQAVAEDLGYPEYANQGLDFWCSAPPQVVDNFQVKSVTGQVIEGKYVESCFLPEMLTQRRIKAAIRKILNAMALAQKVGLDITALGGFSSIVFEEFNLKQNNQVRNVELDFQRFTTGNTHTAYVICRQVESGAKQLGIDLSQATVAVCGATGDIGSAVCRWLDSKHQVKELLLIARNRQRLENLQEELGRGKIMDLETALPQADIIVWVASMPKGVEIAGEMLKKPCLIVDGGYPKNLDTRVKADGVHILKGGIVEHSLDITWEIMKIVEMDIPSRQMFACFAEAILLEFEGWRTNFSWGRNQISVNKMEAIGEASVKHGFCPLVAL
Regarding B2, the “production of fatty aldehydes and fatty alcohols” value in the data set on E. coli MG1655 [1] (enzyme expressed alone in E. coli MG1655 ΔfadE lacZ::Ptrc ′tesA-fadD (fatty acyl-CoA-producing)) is recorded as “did not produce any fatty aldehydes or fatty alcohols”.

B3: SEQ ID NO: 19: Prochlorococcus marinus CCMP1986 PMM0532, putative decarbonylase (protein, listed as Prochlorococcus marinus)
chain: MQTLESNKKTNLENSIDLPDFTTDSYKDAYSRINAIVIEGEQEAHDNYISLATLIPNELEELTKLAKMELKHKRGFTACGRNLGVQADMIFAKEFFSKLHGNFQVALSNGKTTTCLLIQAILIEAFAISAYHVYIRVADPFAKKITQGVVKDEYLHLNYGQEWLKENLATCKDELMEANKVNLPLIKKMLDQVSEDASVLAMDREELMEEFMIAYQDTLLEIGLDNREIARMAMAAIV
Turning to B3, the “conversion of fatty aldehydes provided by MSMEG_5739 to alkanes” value (shortened to “conversion of fatty aldehydes provided”) in data set [2] is listed as “converted fatty aldehydes provided by MSMEG_5739 to the corresponding alkanes”. In the data set with E. coli MG1655 [3], the “Production of Alkanes and Alkenes” value is “yes”; the “fatty aldehyde decarbonylase activity in E. coli” value is “active fatty aldehyde decarbonylase”.

B4: SEQ ID NO: 52: Synechococcus sp. RS9917 RS9917_09941, putative decarbonylase, codon optimized for E. coli (protein, listed as Synechococcus sp.)
chain: MPTLETSEVAVLEDSMASGSRLPDFTSEAYKDAYSRINAIVIEGEQEAHDNYIALGTLIPEQKDELARLARMEMKHMKGFTSCGRNLGVEADLPFAKEFFAPLHGNFQAALQEGKVVTCLLIQALLIEAFAISAYHIYIPVADPFARKITEGVVKDEYTHLNYGQEWLKANFEASKDELMEANKANLPLIRSMLEQVAADAAVLQMEKEDLIEDFLIAYQEALCEIGFSSRDIARMAAAALAV
On to B4, for which, in data set [2], the “conversion of fatty aldehydes provided” value is on record as “converted fatty aldehydes provided by MSMEG_5739 to the corresponding alkanes”. Also, in the data set on E. coli MG1655 [3], the “Production of Alkanes and Alkenes” value was “yes”; the “fatty aldehyde decarbonylase activity in E. coli” value was “active fatty aldehyde decarbonylase”.

B5: ATCC51142 cce_1430: Cyanothece sp. ATCC51142 cce_1430, putative aldehyde-generating enzyme (protein, listed as Cyanothece sp.)
chain: MFGLIGHLTSLEHAHSVADAFGYGPYATQGLDLWCSAPPQFVEHFHVTSITGQTIEGKYIESAFLPEMLIKRRIKAAIRKILNAMAFAQKNNLNITALGGFSSIIFEEFNLKENRQVRNVSLEFDRFTTGNTHTAYIICRQVEQASAKLGIDLSQATVAICGATGDIGSAVCRWLDRKTDTQELFLIARNKERLQRLQDELGRGKIMGLEEALPEADIIVWVASMPKGVEINAETLKKPCLIIDGGYPKNLDTKIKHPDVHILKGGIVEHSLDIDWKIMETVNMDVPSRQMFACFAEAILLEFEQWHTNFSWGRNQITVTKMEQIGEASVKHGLQPLLSW
Turning to B5, the “production of fatty aldehydes and fatty alcohols” value in the data set on E. coli MG1655 [1] (setting [4]) is “generates aldehydes in-vivo”.

B6: PMM0533: P. mariunus CCMP1986 PMM0533, putative aldehyde-generating enzyme (protein, listed as Prochlorococcus marinus)
chain: MFGLIGHSTSFEDAKRKASLLGFDHIADGDLDVWCTAPPQLVENVEVKSAIGISIEGSYIDSCFVPEMLSRFKTARRKVLNAMELAQKKGINITALGGFTSIIFENFNLLQHKQIRNTSLEWERFTTGNTHTAWVICRQLEMNAPKIGIDLKSATVAVVGATGDIGSAVCRWLINKTGIGELLLVARQKEPLDSLQKELDGGTIKNLDEALPEADIVVWVASMPKTMEIDANNLKQPCLMIDGGYPKNLDEKFQGNNIHVVKGGIVRFFNDIGWNMMELAEMQNPQREMFACFAEAMILEFEKCHTNFSWGRNNISLEKMEFIGAASVKHGFSAIGLDKHPKVLAV
Consider B6, for which, in the data set on E. coli MG1655 [1] (setting [4]), the “production of fatty aldehydes and fatty alcohols” value is “did not produce any fatty aldehydes or fatty alcohols”.

B7: SEQ ID NO: 53: Synechococcus sp. RS9917 RS9917_12945, putative decarbonylase, codon optimized for E. coli (protein, listed as Synechococcus sp.)
chain: MTQLDFASAAYREAYSRINGVVIVGEGLANRHFQMLARRIPADRDELQRLGRMEGDHASAFVGCGRNLGVVADLPLARRLFQPLHDLFKRHDHDGNRAECLVIQGLIVECFAVAAYRHYLPVADAYARPITAAVMNDESEHLDYAETWLQRHFDQVKARVSAVVVEALPLTLAMLQSLAADMRQIGMDPVETLASFSELFREALESVGFEAVEARRLLMRAAARMV
Turning to B7, the “conversion of fatty aldehydes provided” value in data set [2] is “converted fatty aldehydes provided by MSMEG_5739 to the corresponding alkanes”. For the same molecule, in the data set on E. coli MG1655 [3], the “Production of Alkanes and Alkenes” value is reported as “yes”; the “fatty aldehyde decarbonylase activity in E. coli” value is on record as “active fatty aldehyde decarbonylase”.
